Laboratory results as given in IntAct's records for PubMed 16004875.

B1: Vesicle-associated membrane protein-associated protein SCS2 (Saccharomyces cerevisiae), P40075 (parent)
chain: MSAVEISPDVLVYKSPLTEQSTEYASISNNSDQTIAFKVKTTAPKFYCVRPNAAVVAPGETIQVQVIFLGLTEEPAADFKCRDKFLVITLPSPYDLNGKAVADVWSDLEAEFKQQAISKKIKVKYLISPDVHPAQNQNIQENKETVEPVVQDSEPKEVPAVVNEKEVPAEPETQPPVQVKKEEVPPVVQKTVPHENEKQTSNSTPAPQNQIKEAATVPAENESSSMGIFILVALLILVLGWFYR
partner: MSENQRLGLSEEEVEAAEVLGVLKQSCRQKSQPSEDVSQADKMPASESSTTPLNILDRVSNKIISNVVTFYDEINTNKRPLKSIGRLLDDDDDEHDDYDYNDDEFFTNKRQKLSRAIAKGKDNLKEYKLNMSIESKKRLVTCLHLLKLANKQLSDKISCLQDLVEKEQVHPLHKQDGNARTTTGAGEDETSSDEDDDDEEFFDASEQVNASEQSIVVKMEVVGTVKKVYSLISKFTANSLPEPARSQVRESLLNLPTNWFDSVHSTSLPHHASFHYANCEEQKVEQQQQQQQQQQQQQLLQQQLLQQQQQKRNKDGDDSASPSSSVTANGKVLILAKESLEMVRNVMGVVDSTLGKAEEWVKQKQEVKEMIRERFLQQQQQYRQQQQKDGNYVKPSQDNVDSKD
B2: Vesicle-associated membrane protein-associated protein A (Rattus norvegicus (Rat)), Q9Z270 (parent)
chain: MASASGAMAKHEQILVLDPPSDLKFKGPFTDVVTTNLKLQNPSDRKVCFKVKTTAPRRYCVRPNSGVIDPGSIVTVSVMLQPFDYDPNEKSKHKFMVQTIFAPPNISDMEAVWKEAKPDELMDSKLRCVFEMPNENDKLNDMEPSKAVPLNASKQDGPLPKPHSVSLNDTETRKLMEECKRLQGEMMKLSEENRHLRDEGLRLRKVAHSDKPGSTSAVSFRDNVTSPLPSLLVVIAAIFIGFFLGKFIL
partner: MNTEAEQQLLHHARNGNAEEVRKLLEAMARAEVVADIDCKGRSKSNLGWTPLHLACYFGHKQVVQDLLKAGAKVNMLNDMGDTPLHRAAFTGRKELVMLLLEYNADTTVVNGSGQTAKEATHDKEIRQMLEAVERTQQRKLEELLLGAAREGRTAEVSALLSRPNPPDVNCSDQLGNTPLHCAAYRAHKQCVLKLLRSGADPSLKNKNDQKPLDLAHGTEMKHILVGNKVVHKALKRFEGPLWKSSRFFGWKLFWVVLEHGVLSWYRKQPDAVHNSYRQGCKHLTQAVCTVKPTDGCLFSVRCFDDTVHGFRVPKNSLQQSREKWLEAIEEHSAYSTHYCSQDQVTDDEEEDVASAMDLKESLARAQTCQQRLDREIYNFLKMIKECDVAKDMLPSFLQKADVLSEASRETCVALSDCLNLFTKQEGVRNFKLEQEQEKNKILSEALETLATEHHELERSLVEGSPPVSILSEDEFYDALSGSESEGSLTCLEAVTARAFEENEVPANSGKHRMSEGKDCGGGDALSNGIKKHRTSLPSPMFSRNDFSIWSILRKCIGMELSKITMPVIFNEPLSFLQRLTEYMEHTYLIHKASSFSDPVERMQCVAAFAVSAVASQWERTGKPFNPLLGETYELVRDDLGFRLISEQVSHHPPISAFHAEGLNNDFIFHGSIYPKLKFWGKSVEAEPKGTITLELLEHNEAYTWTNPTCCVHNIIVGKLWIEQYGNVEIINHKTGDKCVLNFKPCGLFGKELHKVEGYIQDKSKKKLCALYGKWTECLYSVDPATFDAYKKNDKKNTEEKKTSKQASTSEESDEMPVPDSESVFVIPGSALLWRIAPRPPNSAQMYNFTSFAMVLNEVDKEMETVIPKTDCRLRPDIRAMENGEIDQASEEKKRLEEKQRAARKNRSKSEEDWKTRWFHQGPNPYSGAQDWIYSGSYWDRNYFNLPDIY

Variants of: B1
Details: with opi1_yeast OPI1, P21957

| effect of a mutation on the interaction | Variant |
| --- | --- |
| disrupting interaction | MSAVEISPDVLVYKSPLTEQSTEYASISNNSDQTIAFKVKTTAPKFYCVRPNAAVVAPGETIQVQVIFLGLTEEPAADFKCRDDFDVITLPSPYDLNGKAVADVWSDLEAEFKQQAISKKIKVKYLISPDVHPAQNQNIQENKETVEPVVQDSEPKEVPAVVNEKEVPAEPETQPPVQVKKEEVPPVVQKTVPHENEKQTSNSTPAPQNQIKEAATVPAENESSSMGIFILVALLILVLGWFYR [K84D;L86D] |

Variants of: B2
Details: with osbl1_rat Osbpl1a

| effect of a mutation on the interaction | Variant |
| --- | --- |
| disrupting interaction | MASASGAMAKHEQILVLDPPSDLKFKGPFTDVVTTNLKLQNPSDRKVCFKVKTTAPRRYCVRPNSGVIDPGSIVTVSVMLQPFDYDPNEKSKHDFDVQTIFAPPNISDMEAVWKEAKPDELMDSKLRCVFEMPNENDKLNDMEPSKAVPLNASKQDGPLPKPHSVSLNDTETRKLMEECKRLQGEMMKLSEENRHLRDEGLRLRKVAHSDKPGSTSAVSFRDNVTSPLPSLLVVIAAIFIGFFLGKFIL [K94D;M96D] |
